Results as given in publication PMC10113271, “Rational peptide design for inhibition of the KIX–MLL interaction” (Scientific Reports, 2023).
Where no end group is shown, it is not given here. The star is where a group is joined. FITC = O=C1OC2(c3ccc(O)cc3Oc3cc(O)ccc32)c2ccc(NC(=S)*)cc21; βAla = NCCC(=O)O

B1: His-tag–GB1–MLL TAD (wild type) (peptide)
chain: GNILPSDIMDFVLKNTPSMQALGESPESY
notes: MLL TAD, residues 2842-2869 of human MLL; Tyr residue attached at the C-terminus for concentration determination by UV absorption; Used in ITC and immobilised in SPR; also called wild-type MLL TAD; WT; source: E. coli BL21(DE3), purified (Ni-NTA); not shown: His6, N-terminal, kept
B2: His-tag–GB1–MLL TAD T2857W (peptide)
chain: GNILPSDIMDFVLKNWPSMQALGESPESY
notes: MLL TAD, residues 2842-2869 of human MLL, with the substitution; Tyr residue attached at the C-terminus for concentration determination by UV absorption; Used in ITC; also called designed T2857W peptide; T2857W mutant of the MLL TAD peptide; source: E. coli BL21(DE3), purified (Ni-NTA); not shown: His6, N-terminal, kept
B3: His-tag–GB1–MLL TAD T2857R (peptide)
chain: GNILPSDIMDFVLKNRPSMQALGESPESY
notes: MLL TAD, residues 2842-2869 of human MLL, with the substitution; Tyr residue attached at the C-terminus for concentration determination by UV absorption; source: E. coli BL21(DE3), purified (Ni-NTA); not shown: His6, N-terminal, kept
B4: His-tag–GB1–MLL TAD T2857K (peptide)
chain: GNILPSDIMDFVLKNKPSMQALGESPESY
notes: as for B3
B5: His-tag–GB1–MLL TAD T2857Y (peptide)
chain: GNILPSDIMDFVLKNYPSMQALGESPESY
notes: as for B3
B6: MLL TAD peptide K2855R without His-tag–GB1 (peptide)
chain: GNILPSDIMDFVLRNTPSMQALGESPESY
notes: MLL TAD, residues 2842-2869 of human MLL, with the substitution; Tyr residue attached at the C-terminus for concentration determination by UV absorption; One of the four mutants used without His-tag–GB1 in ITC as well as in CD; source: E. coli BL21(DE3), purified (Ni-NTA, thrombin digestion on the column, anion exchange); not shown: His6, N-terminal, cleaved
B7: His-tag–GB1–MLL TAD T2857F (peptide)
chain: GNILPSDIMDFVLKNFPSMQALGESPESY
notes: as for B3
B8: His-tag–GB1–MLL TAD K2855R/T2857W (peptide)
chain: GNILPSDIMDFVLRNWPSMQALGESPESY
notes: MLL TAD, residues 2842-2869 of human MLL, with the substitutions; Tyr residue attached at the C-terminus for concentration determination by UV absorption; also called K2855R/T2857W double mutant; source: E. coli BL21(DE3), purified (Ni-NTA); not shown: His6, N-terminal, kept
B9: MLL TAD peptide D2851L without His-tag–GB1 (peptide)
chain: GNILPSDIMLFVLKNTPSMQALGESPESY
notes: as for B6
B10: His-tag–GB1–MLL TAD T2857A (peptide)
chain: GNILPSDIMDFVLKNAPSMQALGESPESY
notes: as for B3
B11: MLL TAD peptide I2849L without His-tag–GB1 (peptide)
chain: GNILPSDLMDFVLKNTPSMQALGESPESY
notes: as for B6
B12: His-tag–GB1–MLL TAD T2857L (peptide)
chain: GNILPSDIMDFVLKNLPSMQALGESPESY
notes: as for B3
B13: His-tag–GB1–MLL TAD K2855R/T2857L (peptide)
chain: GNILPSDIMDFVLRNLPSMQALGESPESY
notes: MLL TAD, residues 2842-2869 of human MLL, with the substitutions; Tyr residue attached at the C-terminus for concentration determination by UV absorption; also called K2855R/T2857L double mutant; source: E. coli BL21(DE3), purified (Ni-NTA); not shown: His6, N-terminal, kept
B14: MLL TAD peptide T2857I without His-tag–GB1 (peptide)
chain: GNILPSDIMDFVLKNIPSMQALGESPESY
notes: as for B6
B15: wild-type MLL TAD peptide used as inhibitor in fluorescence polarization (peptide)
chain: GNILPSDIMDFVLKNTPSMQALGESPESY
notes: MLL TAD, residues 2842-2869 of human MLL; Tyr residue attached at the C-terminus for concentration determination by UV absorption; also called wild-type peptide; WT; source: E. coli BL21(DE3), purified (Ni-NTA)
B16: designed T2857W peptide used as inhibitor in fluorescence polarization (peptide)
chain: GNILPSDIMDFVLKNWPSMQALGESPESY
notes: MLL TAD, residues 2842-2869 of human MLL, with the substitution; Tyr residue attached at the C-terminus for concentration determination by UV absorption; also called designed peptide; source: E. coli BL21(DE3), purified (Ni-NTA)
B17: FITC-labeled c-Myb TAD peptide (peptide)
peptide: {FITC-βAla}-GYNDEDPEKEKRIKELELLLMSTENELKGQQAL
notes: first residue of the printed peptide; as far as I recall not a residue of c-Myb at this position; c-Myb TAD; 33 residues as printed; also called FITC-Myb; source: synthetic peptide, bought: Biologica Co

Each binder was assayed against T1, KIX domain of CREB-binding protein (residues 586–672 of mouse CBP) (mouse, UniProt P45481 586-672) (assay: SPR; competition: mixture of KIX (5 μM) and inhibitor (0.27–200 μM) injected over immobilised His-tag–GB1–MLL TAD; 30 °C; 20 mM sodium phosphate pH 7.0, 100 mM NaCl, 0.05% Tween 20). Conditions: both partners purified.
T1 construct: KIX domain, residues 586-672 of mouse CBP; 6xHis-tag and thrombin cleavage site at the N-terminus; source: E. coli BL21(DE3)pLysS, purified (Ni-NTA, gel filtration on Superdex 200 pg)
T1 sequence (P45481 586-672): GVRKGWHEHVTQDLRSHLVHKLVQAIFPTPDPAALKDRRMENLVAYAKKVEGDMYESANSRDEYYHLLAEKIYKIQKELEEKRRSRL

Binder	IC50
B1	10.4 µM
B2	5.67 µM

Each binder was assayed against T1, KIX domain of CREB-binding protein … (assay: SPR; His-tag–GB1–MLL TAD immobilised on CM5 by amine coupling (77.9 RU); KIX 0.04–30 μM injected; 30 °C; 20 mM sodium phosphate pH 7.0, 100 mM NaCl, 0.05% Tween 20; equilibrium analysis). Conditions: both partners purified.

Binder	Kd
B1	4.94 µM

What follows are binders tested against T1, KIX domain of CREB-binding protein … (assay: ITC; 600 μM MLL solution titrated into the cell containing 45 µM KIX; 30 °C; 20 mM Tris–acetate pH 7.0, 50 mM NaCl; one-site binding model). Conditions: both partners purified.

Binder	Kd	dH	stoichiometry N
B1	2.02 µM	-13.1 kcal/mol	1.02
B3	3 µM	-12.6 kcal/mol	1.03
B4	4.9 µM	-11.7 kcal/mol	1.02
B5	2.28 µM	-12.3 kcal/mol	1.02
B6	1.5 µM	-13.8 kcal/mol	0.94
B7	2.1 µM	-11.1 kcal/mol	1.07
B8	1.04 µM	-12.2 kcal/mol	1.04
B9	4.8 µM	-8.8 kcal/mol	1.02
B10	2.62 µM	-11.8 kcal/mol	1.03
B2	0.95 µM	-12.8 kcal/mol	1.02
B11	2.8 µM	-12.3 kcal/mol	0.947
B12	1.9 µM	-10.5 kcal/mol	1.05
B13	1.72 µM	-9.5 kcal/mol	1.09
B14	2.4 µM	-10 kcal/mol	1.04

These binders were tested against T1, KIX domain of CREB-binding protein … (assay: fluorescence polarisation; competition: inhibitor (0–200 μM) titrated into a mixture of KIX (2 μM) and FITC-Myb (25 nM); 30 °C; 20 mM sodium phosphate pH 7.0, 100 mM NaCl, 0.005% Tween 20). Conditions: both partners purified.

Binder	IC50
B15	36 µM
B16	16 µM

These binders were tested against T1, KIX domain of CREB-binding protein … (assay: fluorescence polarisation; 0–100 μM KIX titrated into 25 nM FITC-labeled peptide; 30 °C; 20 mM sodium phosphate pH 7.0, 100 mM NaCl, 0.005% Tween 20). Conditions: both partners purified.

Binder	binding result
B17	binds

What follows are binders tested against T1, KIX domain of CREB-binding protein … (assay: fluorescence polarisation; competition: inhibitor (0–200 μM) titrated into a mixture of KIX (2 μM) and FITC-MLL (25 nM); 30 °C; 20 mM sodium phosphate pH 7.0, 100 mM NaCl, 0.005% Tween 20). Conditions: both partners purified.

Binder	IC50
B15	7.1 µM
B16	3.48 µM
